Patent US20120058906A1

Key:
[1] = biological target: rHuman P-Cadherin/Fc Chimera, CF (R&D Systems Cat#861-PC) (human) (UniProt P22223); assay: ECL (MSD multi-spot), Fab 340 nM; blank 554
[2] = biological target: rHuman Erythropoietin R/Fc Chimera, CF (R&D Systems Cat#963-ER) (human) (UniProt P19235); assay: ECL (MSD multi-spot), Fab 340 nM; blank 554
[3] = biological target: rHuman Notch-1/Fc Chimera, CF (R&D Systems Cat#3647-TK) (human) (UniProt P46531); assay: ECL (MSD multi-spot), Fab 340 nM; blank 554
[4] = biological target: rHuman IGF-1 sR (IGF-1 sR), CF (R&D Systems Cat#391-GR) (human) (UniProt P08069); assay: ECL (MSD multi-spot), Fab 340 nM; blank 554
[5] = biological target: rHuman ErbB2/Fc Chimera, CF (R&D Systems Cat#1129-ER) (human) (UniProt P04626); assay: ECL (MSD multi-spot), Fab 340 nM; blank 554
[6] = biological target: rHuman EGF R/Fc Chimera, CF (R&D Systems Cat#344-ER) (human) (UniProt P00533); assay: ECL (MSD multi-spot), Fab 340 nM; blank 554
[7] = biological target: rHuman HGF R/c-MET/Fc Chimera, CF (R&D Systems Cat#358-MT/CF) (human) (UniProt P08581); assay: ECL (MSD multi-spot), Fab 340 nM; blank 554
[8] = biological target: rHuman CD44/Fc Chimera, CF (R&D Systems Cat#3660-CD) (human) (UniProt P16070); assay: ECL (MSD multi-spot), Fab 340 nM; blank 554
[9] = biological target: rHuman P-Cadherin/Fc Chimera, CF (R&D Systems Cat#861-PC) (human) (UniProt P22223); assay: ECL (MSD multi-spot), Fab […]; blank 162
[10] = biological target: rHuman Erythropoietin R/Fc Chimera, CF (R&D Systems Cat#963-ER) (human) (UniProt P19235); assay: ECL (MSD multi-spot), Fab […]; blank 162
[11] = biological target: rHuman Notch-1/Fc Chimera, CF (R&D Systems Cat#3647-TK) (human) (UniProt P46531); assay: ECL (MSD multi-spot), Fab […]; blank 162
[12] = biological target: rHuman IGF-1 sR (IGF-1 sR), CF (R&D Systems Cat#391-GR) (human) (UniProt P08069); assay: ECL (MSD multi-spot), Fab […]; blank 162
[13] = biological target: rHuman ErbB2/Fc Chimera, CF (R&D Systems Cat#1129-ER) (human) (UniProt P04626); assay: ECL (MSD multi-spot), Fab […]; blank 162
[14] = biological target: rHuman EGF R/Fc Chimera, CF (R&D Systems Cat#344-ER) (human) (UniProt P00533); assay: ECL (MSD multi-spot), Fab […]; blank 162
[15] = biological target: rHuman HGF R/c-MET/Fc Chimera, CF (R&D Systems Cat#358-MT/CF) (human) (UniProt P08581); assay: ECL (MSD multi-spot), Fab […]; blank 162
[16] = biological target: rHuman CD44/Fc Chimera, CF (R&D Systems Cat#3660-CD) (human) (UniProt P16070); assay: ECL (MSD multi-spot), Fab […]; blank 162
[17] = biological target: rHuman P-Cadherin/Fc Chimera, CF (R&D Systems Cat#861-PC) (human) (UniProt P22223); assay: ECL (MSD multi-spot), Fab 85.0 nM; blank 292
[18] = biological target: rHuman Erythropoietin R/Fc Chimera, CF (R&D Systems Cat#963-ER) (human) (UniProt P19235); assay: ECL (MSD multi-spot), Fab 85.0 nM; blank 292
[19] = biological target: rHuman Notch-1/Fc Chimera, CF (R&D Systems Cat#3647-TK) (human) (UniProt P46531); assay: ECL (MSD multi-spot), Fab 85.0 nM; blank 292
[20] = biological target: rHuman IGF-1 sR (IGF-1 sR), CF (R&D Systems Cat#391-GR) (human) (UniProt P08069); assay: ECL (MSD multi-spot), Fab 85.0 nM; blank 292
[21] = biological target: rHuman ErbB2/Fc Chimera, CF (R&D Systems Cat#1129-ER) (human) (UniProt P04626); assay: ECL (MSD multi-spot), Fab 85.0 nM; blank 292
[22] = biological target: rHuman CD44/Fc Chimera, CF (R&D Systems Cat#3660-CD) (human) (UniProt P16070); assay: ECL (MSD multi-spot), Fab 85.0 nM; blank 292
[23] = biological target: rHuman P-Cadherin/Fc Chimera, CF (R&D Systems Cat#861-PC) (human) (UniProt P22223); assay: ECL (MSD multi-spot) screen, antigen spotted on plate, Fab at 0.34 uM; blank spot 356
[24] = biological target: rHuman Erythropoietin R/Fc Chimera, CF (R&D Systems Cat#963-ER) (human) (UniProt P19235); assay: as above
[25] = biological target: rHuman IGF-1 sR, CF (R&D Systems Cat#391-GR) (human) (UniProt P08069); assay: as above
[26] = biological target: rHuman Notch-1/Fc Chimera, CF (R&D Systems Cat#3647-TK) (human) (UniProt P46531); assay: as above
[27] = biological target: rHuman ErbB2/Fc Chimera, CF (R&D Systems Cat#1129-ER) (human) (UniProt P04626); assay: as above
[28] = biological target: rHuman HGF R/c-MET/Fc Chimera, CF (R&D Systems Cat#358-MT/CF) (human) (UniProt P08581); assay: as above

rHuman Erythropoietin R/Fc Chimera, CF (R&D Systems Cat#963-ER) (human), sequence (P19235 25-250, change not shown): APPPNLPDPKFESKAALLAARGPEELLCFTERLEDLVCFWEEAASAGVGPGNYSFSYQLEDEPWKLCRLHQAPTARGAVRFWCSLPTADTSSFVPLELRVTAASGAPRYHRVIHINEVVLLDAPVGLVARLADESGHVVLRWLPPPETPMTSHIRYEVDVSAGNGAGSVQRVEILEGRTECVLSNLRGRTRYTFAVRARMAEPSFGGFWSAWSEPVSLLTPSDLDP

How did the ECL signal [1] turn out when “Fab VH4-34_IGHD7-27*01_IGHJ4*01 & V4-6_IGLJ4*01” was run?
Its ECL signal is 1160 ECL signal.

What about the ECL signal [2] of the same substance?
Its ECL signal is 1260 ECL signal.

What about the ECL signal [3] of the same substance?
The ECL signal was 1210 ECL signal.

What about the ECL signal [4] of the same substance?
The ECL signal was 1040 ECL signal.

What about the ECL signal [5] of the same substance?
Its ECL signal is 1230 ECL signal.

What about the ECL signal [6] of the same substance?
Its ECL signal is 1210 ECL signal.

And the ECL signal [7]?
The ECL signal was 1240 ECL signal.

And the ECL signal [8]?
The ECL signal was 959 ECL signal.

And the ECL signal [9]?
Its ECL signal is 421 ECL signal.

And the ECL signal [10]?
Its ECL signal is 494 ECL signal.

And the ECL signal [11]?
The ECL signal was 649 ECL signal.

And the ECL signal [12]?
The ECL signal was 646 ECL signal.

What about the ECL signal [13] of the same substance?
The ECL signal was 866 ECL signal.

What about the ECL signal [14] of the same substance?
Its ECL signal is 528 ECL signal.

What about the ECL signal [15] of the same substance?
Its ECL signal is 607 ECL signal.

And the ECL signal [16]?
The ECL signal was 522 ECL signal.

What about the ECL signal [17] of the same substance?
The ECL signal was 709 ECL signal.

What about the ECL signal [18] of the same substance?
Its ECL signal is 817 ECL signal.

What about the ECL signal [19] of the same substance?
Its ECL signal is 780 ECL signal.

And the ECL signal [20]?
The ECL signal was 891 ECL signal.

What about the ECL signal [21] of the same substance?
Its ECL signal is 844 ECL signal.

What about the ECL signal [22] of the same substance?
The ECL signal was 693 ECL signal.

What about the ECL signal [23] of the same substance?
The ECL signal was 935.

And the ECL signal [24]?
The ECL signal was 907.

What about the ECL signal [25] of the same substance?
Its ECL signal is 871.

What about the ECL signal [26] of the same substance?
The ECL signal was 912.

And the ECL signal [27]?
Its ECL signal is 900.

What about the ECL signal [28] of the same substance?
The ECL signal was 914.
